Substrate in data set [1]: CO/N=C(\C(=O)N[C@@H]1C(=O)N2C(C(=O)O)=C(COC(C)=O)CS[C@H]12)c1csc(N)n1
Description: (§1) Ratio of Kcat to Km for Chryseobacterium meningosepticum beta-Lactamase GOB-1. The following applies: Elizabethkingia meningoseptica.

Substrate in data set [2]: CO[C@@]1(NC(=O)Cc2cccs2)C(=O)N2C(C(=O)O)=C(COC(N)=O)CS[C@@H]21
Described as §1. Particulars: Elizabethkingia meningoseptica.

Substrate in data set [3]: CC1(C)S[C@@H]2[C@H](NC(=O)[C@H](C(=O)O)c3ccsc3)C(=O)N2[C@H]1C(=O)O
The data set is described as §1. The following applies: Elizabethkingia meningoseptica.

Substrate in data set [4]: CO/N=C(\C(=O)N[C@@H]1C(=O)N2C(C(=O)[O-])=C(C[N+]3(C)CCCC3)CS[C@H]12)c1csc(N)n1
Described as §1. The following applies: Elizabethkingia meningoseptica.

Substrate in data set [5]: CC1(C)S[C@@H]2[C@H](NC(=O)Cc3ccccc3)C(=O)N2[C@H]1C(=O)O
The data set is described as §1. The following applies: Elizabethkingia meningoseptica.

Substrate in data set [6]: CO/N=C(\C(=O)N[C@@H]1C(=O)N2C(C(=O)O)=C(COC(N)=O)CS[C@H]12)c1ccco1
The data set is described as §1. Particulars: Elizabethkingia meningoseptica.

Substrate in data set [7]: C[C@@H](O)[C@H]1C(=O)N2C(C(=O)O)=C(SCCNC=N)C[C@H]12
The description is as §1. The following applies: Elizabethkingia meningoseptica.

Substrate in data set [8]: CC(=O)OCC1=C(C(=O)O)N2C(=O)[C@@H](NC(=O)Cc3cccs3)[C@H]2SC1
Described as §1. The following applies: Elizabethkingia meningoseptica.

Substrate in data set [9]: CCN1CCN(C(=O)N[C@@H](C(=O)N[C@@H]2C(=O)N3[C@@H]2SC(C)(C)[C@@H]3C(=O)O)c2ccccc2)C(=O)C1=O
The description is as §1. The following applies: Elizabethkingia meningoseptica.

Substrate in data set [10]: CC(C)(O/N=C(\C(=O)N[C@@H]1C(=O)N2C(C(=O)[O-])=C(C[n+]3ccccc3)CS[C@H]12)c1csc(N)n1)C(=O)O
Described as §1. The following applies: Elizabethkingia meningoseptica.

Substrate in data set [11]: CC1(C)S[C@@H]2[C@H](NC(=O)[C@H](N)c3ccccc3)C(=O)N2[C@H]1C(=O)O
Description: (§2) Ratio of Kcat to Km for Caulobacter crescentus beta-Lactamase CAU-1. The following applies: Caulobacter vibrioides.

Substrate in data set [12]: CC1(C)S[C@@H]2[C@H](NC(=O)Cc3ccccc3)C(=O)N2[C@H]1C(=O)O
The data set is described as §2. Particulars: Caulobacter vibrioides.

Substrate in data set [13]: CO/N=C(\C(=O)N[C@@H]1C(=O)N2C(C(=O)O)=C(COC(N)=O)CS[C@H]12)c1ccco1
The data set is described as §2. The following applies: Caulobacter vibrioides.

Substrate in data set [14]: C[C@@H](O)[C@H]1C(=O)N2C(C(=O)O)=C(SCCNC=N)C[C@H]12
The data set is described as §2. The following applies: Caulobacter vibrioides.

Substrate in data set [15]: CC(=O)OCC1=C(C(=O)O)N2C(=O)[C@@H](NC(=O)Cc3cccs3)[C@H]2SC1
The description is as §2. Particulars: Caulobacter vibrioides.

Substrate in data set [16]: CCN1CCN(C(=O)N[C@@H](C(=O)N[C@@H]2C(=O)N3[C@@H]2SC(C)(C)[C@@H]3C(=O)O)c2ccccc2)C(=O)C1=O
The description is as §2. The following applies: Caulobacter vibrioides.

Substrate in data set [17]: CC(C)(O/N=C(\C(=O)N[C@@H]1C(=O)N2C(C(=O)[O-])=C(C[n+]3ccccc3)CS[C@H]12)c1csc(N)n1)C(=O)O
The description is as §2. The following applies: Caulobacter vibrioides.

Substrate in data set [18]: CO/N=C(\C(=O)N[C@@H]1C(=O)N2C(C(=O)O)=C(COC(C)=O)CS[C@H]12)c1csc(N)n1
Description: (§3) Ratio of Kcat to Km for Janthinobacterium lividum THIN-B.

Substrate in data set [19]: CO/N=C(\C(=O)N[C@@H]1C(=O)N2C(C(=O)[O-])=C(C[N+]3(C)CCCC3)CS[C@H]12)c1csc(N)n1
The description is as §3.

Substrate in data set [20]: CC1(C)S[C@@H]2[C@H](NC(=O)[C@H](N)c3ccccc3)C(=O)N2[C@H]1C(=O)O
The data set is described as §3.

Substrate in data set [21]: CO/N=C(\C(=O)N[C@@H]1C(=O)N2C(C(=O)O)=C(COC(N)=O)CS[C@H]12)c1ccco1
The data set is described as §3.

Substrate in data set [22]: C[C@@H](O)[C@H]1C(=O)N2C(C(=O)O)=C(SCCNC=N)C[C@H]12
Described as §3.

Substrate in data set [23]: CCN1CCN(C(=O)N[C@@H](C(=O)N[C@@H]2C(=O)N3[C@@H]2SC(C)(C)[C@@H]3C(=O)O)c2ccccc2)C(=O)C1=O
The data set is described as §3.

Substrate in data set [24]: CC(C)(O/N=C(\C(=O)N[C@@H]1C(=O)N2C(C(=O)[O-])=C(C[n+]3ccccc3)CS[C@H]12)c1csc(N)n1)C(=O)O
Described as §3.

Substrate in data set [25]: CO/N=C(\C(=O)N[C@@H]1C(=O)N2C(C(=O)O)=C(COC(C)=O)CS[C@H]12)c1csc(N)n1
Description: (§4) Ratio of Kcat to Km for Pseudomonas maltophilia ULA-511 beta-Lactamase L-1. The following applies: Stenotrophomonas maltophilia.

Substrate in data set [26]: CO[C@@]1(NC(=O)Cc2cccs2)C(=O)N2C(C(=O)O)=C(COC(N)=O)CS[C@@H]21
Described as §4. Particulars: Stenotrophomonas maltophilia.

Substrate in data set [27]: CC1(C)S[C@@H]2[C@H](NC(=O)[C@H](C(=O)O)c3ccsc3)C(=O)N2[C@H]1C(=O)O
Described as §4. Particulars: Stenotrophomonas maltophilia.

Substrate in data set [28]: CO/N=C(\C(=O)N[C@@H]1C(=O)N2C(C(=O)[O-])=C(C[N+]3(C)CCCC3)CS[C@H]12)c1csc(N)n1
The description is as §4. The following applies: Stenotrophomonas maltophilia.

Substrate in data set [29]: CO[C@@]1(NC(=O)C(C(=O)O)c2ccsc2)C(=O)N2[C@@H](C(=O)O)C(C)(C)S[C@@H]21
The data set is described as §4. Particulars: Stenotrophomonas maltophilia.

Substrate in data set [30]: CC1(C)S[C@@H]2[C@H](NC(=O)[C@H](N)c3ccccc3)C(=O)N2[C@H]1C(=O)O
Described as §4. The following applies: Stenotrophomonas maltophilia.

Substrate in data set [31]: CC1(C)S[C@@H]2[C@H](NC(=O)Cc3ccccc3)C(=O)N2[C@H]1C(=O)O
Described as §4. Particulars: Stenotrophomonas maltophilia.

Substrate in data set [32]: CO/N=C(\C(=O)N[C@@H]1C(=O)N2C(C(=O)O)=C(COC(N)=O)CS[C@H]12)c1ccco1
Described as §4. The following applies: Stenotrophomonas maltophilia.

Substrate in data set [33]: C[C@@H](O)[C@H]1C(=O)N2C(C(=O)O)=C(SCCNC=N)C[C@H]12
Described as §4. The following applies: Stenotrophomonas maltophilia.

Substrate in data set [34]: CCN1CCN(C(=O)N[C@@H](C(=O)N[C@@H]2C(=O)N3[C@@H]2SC(C)(C)[C@@H]3C(=O)O)c2ccccc2)C(=O)C1=O
The description is as §4. The following applies: Stenotrophomonas maltophilia.

Substrate in data set [35]: CC(C)(O/N=C(\C(=O)N[C@@H]1C(=O)N2C(C(=O)[O-])=C(C[n+]3ccccc3)CS[C@H]12)c1csc(N)n1)C(=O)O
The description is as §4. Particulars: Stenotrophomonas maltophilia.

B1: GOB-1 metallo-beta-lactamase (Elizabethkingia meningoseptica), A4GRB7 (protein)
chain: MRNFATLFFMFICLGLNAQVVKEPENMPKEWNQTYEPFRIAGNLYYVGTYDLASYLIVTDKGNILINTGTAESLPIIKANIQKLGFNYKDIKILLLTQAHYDHTGALQDLKTETGAKFYADKADADVLRTGGKSDYEMGKYGVTFKPVTPDKTLKDQDKITLGNTILTLLHHPGHTKGSCSFIFETKDEKRKYRVLIANMPSVIVDKKFSEVTAYPNIQSDYAYTFKAMKNLDFDLWVASHASQFDLHEKRKEGDPYNPQLFMDKQSYFQNLNDLEKSYLDKIKKDSQDK
B1: the kcat/Km in data set [1] was 8.5 ×10⁵ /M/s; in [2] it was 2.5 ×10⁵ /M/s; in data set [3] it was 5.2 ×10⁵ /M/s; in [4], 2 ×10⁵ /M/s; in data set [5] it was 1.9 ×10⁷ /M/s; in [6], 9.8 ×10⁵ /M/s. Moreover, the kcat/Km in [7] was found to be 6.6 ×10⁵ /M/s; in [8], 6.7 ×10⁵ /M/s; in data set [9], 1.7 ×10⁶ /M/s; in [10] it was 7.6 ×10⁵ /M/s.

B2: Metallo-beta-lactamase (Caulobacter vibrioides), Q8KKG1 (protein)
chain: MKRLILAAAASLLALASAAHADDMPANWTKPTKPYRVVGNIYYVGTEGISSWLITSSEGHVVLDGGPNAETGKLVERNITALGFQLADVKILINTHAHYDHAGGLAQLKADTGAKLWISRDDAPAMAAGHHIGDNIYGPTPMPAAKPDRSFGDQTKLKLGEIAMVAHLTPGHTIGCTSWTTAVVEKGRPLTVTFPCSLSVAGNVLVGNKTHRTIVADYRASFAKLRAIPTDVMLPAHEEQGNLLAKRQKQLRGDPNAFVDPGELARFVDASEAAFNKELARQQAAGPNR
On to B2, for which the kcat/Km was determined as 5 ×10⁵ /M/s in data set [11]; 4.5 ×10⁵ /M/s in [12]; 1.4 ×10⁴ /M/s in data set [13]; 2 ×10⁵ /M/s in data set [14]; 4.3 ×10⁵ /M/s in data set [15]; 5.7 ×10⁵ /M/s in [16]. Further, the kcat/Km in data set [17] was found to be 2 ×10³ /M/s.

B3: THIN-B proetin (Janthinobacterium lividum), Q9AEF9 (protein)
chain: MTLLAKLMLATVATMSAATVQAKTPAPKPDTPVDCDSCKAWNGEVTPFNVFGNTWYVGTAGLSAVLVTSPQGHVLLDGALPQSAPLIIANIAALGFRIEDVKFILNSHAHWDHAGGIAALQAASGATVVASASGALGLQSGTNGKDDPQFQAKPVVHVAKVEKVKVVGEGDAIKLGPLNLTAHMTPGHTPGATTWTWTSCEGQRCLDVVYADSLNPYSSGDFTYTGKGDGPDISASFAASIAKVAALPCDIILSVHPDSTGVLDKAAKRSGEHNPFIDANACRAYAATADAMLTKRLAKERGVALPAAAPAAQHAH
Take B3: the kcat/Km worked out at 2 ×10⁶ /M/s in [18]; 7.9 ×10³ /M/s in [19]; 3.7 ×10⁵ /M/s in data set [20]; 2.8 ×10⁶ /M/s in data set [21]; 1.5 ×10⁶ /M/s in [22]; 2 ×10⁵ /M/s in data set [23]. Also, the kcat/Km in data set [24] is 1.4 ×10⁵ /M/s.

B4: Beta-lactamase L1 (Stenotrophomonas maltophilia), P52700 (protein)
chain: MRSTLLAFALAVALPAAHTSAAEVPLPQLRAYTVDASWLQPMAPLQIADHTWQIGTEDLTALLVQTPDGAVLLDGGMPQMASHLLDNMKARGVTPRDLRLILLSHAHADHAGPVAELKRRTGAKVAANAESAVLLARGGSDDLHFGDGITYPPANADRIVMDGEVITVGGIVFTAHFMAGHTPGSTAWTWTDTRNGKPVRIAYADSLSAPGYQLQGNPRYPHLIEDYRRSFATVRALPCDVLLTPHPGASNWDYAAGARAGAKALTCKAYADAAEQKFDGQLAKETAGAR
B4: the kcat/Km in [25] came to 2.6 ×10⁶ /M/s; in data set [26], 5.5 ×10⁵ /M/s; in data set [27], 2.7 ×10⁶ /M/s; in data set [28], 1.69 ×10⁴ /M/s; in [29], 1.2 ×10⁶ /M/s; in data set [30] it was 4.4 ×10⁶ /M/s. Moreover, the kcat/Km in data set [31] came out at 2.2 ×10⁷ /M/s; in data set [32], 2.7 ×10⁶ /M/s; in [33] it was 7.3 ×10⁵ /M/s; in data set [34] it was 7 ×10⁶ /M/s; in [35] it was 1.8 ×10⁵ /M/s.
